Measured values reported in the RNAGym collection of RNA variant scans (doi:10.1073/pnas.2313332121).

B1: TPR t1 (parent)
chain: GACCAAUCUGCCCUCAGAGCUCGAGAACAUCUUCGGAUGCAGAGGAGGCAGGCUUCGGUGGCGCGAUAGCGCCAACGUCCUCAACCUCCAAUGCAUCCCACCACAUGAUGAUGCCUGAAGAGCCUUGGUUUUUUG

Variants of: B1
Assay: polymerase ribozyme fitness, log enrichment relative to wild type (log ratio); higher = more active; in vitro selection for triplet polymerase activity
How it was run: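 For each subunit of a heterodimeric triplet polymerase ribozyme, a mutant library was built by PCR and transcribed, then taken through a single in vitro selection round in triplicate. Selection involved annealing to a biotinylated primer, the partner subunit and triplets, incubation frozen at −7 °C, gel excision of extended constructs, capture on streptavidin beads and RT-PCR. Genotypes were retained after Illumina sequencing of inputs and outputs only with ≥10 input reads and ≥1 read in each output. Fitness is defined as the logarithm of a genotype's enrichment relative to wild-type enrichment, using inverse-variance-weighted averages across replicates, with the logarithm taken to base 2.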

Point of comparison: GACCAAUCUGCCCUCAGAGCUCGAGAACAUCUUCGGAUGCAGAGGAGGCAGGCUUCGGUUGCGCGAUAGCGCCAACGUCUUCAACCUCCAAUGCAUCCCACCACAGGAUGAUGCCUGAAGAGCCUUGGGUUUUUG, “polymerase ribozyme fitness (log ratio)” value -6.15. Against it:
- GACCAAUCUGCCCUCAGAGCUCGAGAACAUCUUCGGAUGCAGAGGAGGCAGGCUUCGGUUGCGCGAUAGCGCCAACGUCCUCAACCUCCAAUACAUCCCACCACCUGAUGAUGCCUGAAGAGCCUUGGUUUUUUG — higher, -3.53
- GACCAAUCUGCCCUCAGAGCUCGAGAACAUCUUCGGAUGCAGAGGAGGCAGGCUUCGGUUGCGCGAUAGCGCCAACGUCCUCAACCUCCAAUGCAUCCCACCACAUGAUGAUGUCUGAAGAGUCUUGGUUUUUUG — higher, -3.67
- GACCAAUCUGCCCUCAGAGCUCGAGAACAUCUUCGGAUGCAGAGGAGGCAGGCUUCGGUUGCGCGAUAGCGCCAACGUCCUCAACCUCCAAUGUAUCCCACCACAUGAUCAUGCCUGAAGAGCCUUGGUUUUUUG — higher, -4.16
- GACCAAUCUGCCCUCAGAGCUCGAGAACAUCUUCGGAUGCAGAGGAGGCAGGCUUCGGUUGCGCGAUAGCGCCAACAUCCUCAACCUCCAAUGCAUCCCACCACAUGAUGAUGCCUGAAGAGCCUUGGUUAUUUG — higher, -0.885
- GACCAAUCUGCCCUCAGAGCUCGAGAACAUCUUCGGAUGCAGAGGAGGCAGGCUUCGGUUGCGCGAUAGCGUCAACGUCCUCAACCUCCAAUGCAUCCCACCACAUGAUGUUGCCUGAAGAGCCUUGGUUUUUUG — higher, -2.86
- GACCAAUCUGCCCUCAGAGCUCGAGAACAUCUUCGGAUGCAGAGGAGGCAGGCUUCGGUUGCGCGAUAGCGCUAACGUCCUCAACCUCCAAUGCAUCCCACCACAAGAUGAUGCCUGAAGAGCCUUGGUUUUUUG — higher, -0.452
- GACCAAUCUGCCCUCAGAGCUCGAGAACAUCUUCGGAUGCAGAGGAGGCAGGCUUCGGUUGCGCGAUAGCGCCAACGUCCUCAAACUCCAAUGCAUCCCAUCACAUGAUGAUGCCUGAAGAGCCUUGGUUUUUUG — higher, -0.366
- GACCAAUCUGCCCUCAGAGCUCGAGAACAUCUUCGGAUGCAGAGGAGGCAGGCUUCGGUUGCGCGAUAGCGCCAACGUCCUCAACCUCUAAUGCAUCCCACCACAAGAUGAUGCCUGAAGAGCCUUGGUUUUUUG — higher, -0.38
- GACCAAUCUGCCCUCAGAGCUCGAGAACAUCUUCGGAUGCAGAGGAGGCAGGCUUCGGUUACGCGAUAGCGCCAACGUCCUCAACCUCCAUUGCAUCCCACCACAUGAUGAUGCCUGAAGAGCCUUGGUUUUUUG — higher, -2.61
- GACCAAUCUGCCCUCAGAGCUCGAGAACAUCUUCGGAUGCAGAGGAGGCAGGCUUCGGUUGCGCGAUAGCGCCAACGUCCUCAACCUCCAAUGCAUCCCACCACAUGAUGAUGCCUGAAGAGGUUUGGUUUUUUG — higher, 2.24
- GACCAAUCUGCCCUCAGAGCUCGAGAACAUCUUCGGAUGCAGAGGAGGCAGGCUUCGGUUGCGCGAUAGCGCCAACGUCCUCAACCUCCAAUGCAUCCCACCACAUGAUGAUGCCUGAAAAGCCUAGGUUUUUUG — higher, -0.262
- GACCAAUCUGCCCUCAGAGCUCGAGAACAUCUUCGGAUGCAGAGGAGGCAGGCUUCGGUUGCGCGAUAGCGCCAACGUCCUCAACCUCCAAUGCAUACCACCACAUGAUGAUGCCUGAAGAGUCUUGGUUUUUUG — higher, -2.62
- GACCAAUCUGCCCUCAGAGCUCGAGAACAUCUUCGGAUGCAGAGGAGGCAGGCUUCGGUUGCGCGAUAGAGCCAACGUCCUCAACCUCCAAUGCAUCCCACCACAUGAUGAUGCCUGAAGAGCCUUGGUUUUUUG — higher, -3.78
- GACCAAUCUGCCCUCAGAGCUCGAGAACAUCUUCGGAUGCAGAGGAGGCAGGCUUCGGUUGCGCGAUAGCGCCAACGUCCUCAACCUCCAAUGCAUCCCAUCACAUGAUGAUGCCUGAAAAGCCUUGGUUUUUUG — higher, 0.583
- GACCAAUCUGCCCUCAGAGCUCGAGAACAUCUUCGGAUGCAGAGGAGGCAGGCUUCGGUUGCGCGAUAGCUCCAACGUCCUCAACCUCCAAUGCAUCCCACCACAUGAUGAUGCCUGAAGAGCCUUGGUUUUUUG — higher, -1.98
- GACCAAUCUGCCCUCAGAGCUCGAGAACAUCUUCGGAUGCAGAGGAGGCAGGCUUCGGUUGCGCGAUAGCCCCAACGUCCUCAACCUCCAAUGCAUCCCACCACAUGAUGAUGCCUGAAGAGCCUUGGUUUUUUG — higher, -3.38
- GACCAAUCUGCCCUCAGAGCUCGAGAACAUCUUCGGAUGCAGAGGAGGCAGGCUUCGGUUACGCGAUAGCGCCAACGGCCUCAUCAUCCAAUGCAUCCCACCACAUGAUGAUGCCUGAAGAGCCUUGGUUUUUUG — higher, -3.37
- GACCAAUCUGCCCUCAGAGCUCGAGAACAUCUUCGGAUGCAGAGGAGGCAGGCUUCGGUUGCGCGAUAGCGCCAACGUCCUCAACCUCCAAUGCAUCCCACCACAUGAUGAUGACUGAAGAGCCUUCGUUUUUUG — higher, -2.37
- GACCAAUCUGCCCUCAGAGCUCGAGAACAUCUUCGGAUGCAGAGGAGGCAGGCUUCGGUUGCGCGAUAGCGCCAACGUCCUCAACCUCCAAUGCAUCCCACUACAUGGUGAUGCCUGAAGAGCCUUGGUUUUUUG — higher, -3.29
- GACCAAUCUGCCCUCAGAGCUCGAGAACAUCUUCGGAUGCAGAGGAGGCAGGCUUCGGUUGCGCGAUAGCGCCAACGUCCUCAACCUCCAAUGCAUCCCACCACAUAAUGAUGCCUGAAGAGCCUUGGUUUUUUG — higher, -3.31
